Results from article doi:10.1101/2022.06.20.496707.
Where two headings read alike, the source gives them in different places.

What was measured:
[1] = target: Serratia NucC (type III-A CRISPR-Cas-associated accessory nuclease of Serratia sp. ATCC 39006) (Serratia sp. ATCC 39006); assay: crystal structure
[2] = target: Serratia NucC (type III-A CRISPR-Cas-associated accessory nuclease of Serratia sp. ATCC 39006) (Serratia sp. ATCC 39006); assay: crystal structure; remark: listed apart in the source

Serratia NucC (type III-A CRISPR-Cas-associated accessory nuclease of Serratia sp. ATCC 39006) (enzyme)
stoichiometry N [1]: 6 | stoichiometry N [2]: 6
